Laboratory results as given in US20240368267A1 (KODIAK SCIENCES, published 2024).
Where a chain is given by its changes, count along the chain named. Numbers in names are those of the source.

B1: anti-IL-6 Fab, heavy chain A105K (Fab, V domains shown)
VH: EVQLVESGGGLVQPGGSLRLSCAASGFTFSPFAMSWVRQAPGKGLEWVAKISPGGSWTYYSDTVTGRFTFSLDTSKSTAYLQMNSLRAEDTAVYYCARQLWGYYKLDIWGQGTLVTVSS
VL: DIQLTQSPSSLSASVGDRVTITCSASISVSYMYWYQQKPGKAPKLLIYDMSNLASGVPSRFSGSGSGTDFTLTISSLQPEDFATYYCMQWSGYPYTFGQGTKVEIK
notes: built as m22 plus the named change
B2: anti-IL-6 Fab, light chain S55T (Fab, V domains shown)
VH: B1 VH with K105A
VL: B1 VL with S55T
notes: as for B1
B3: anti-IL-6 Fab, heavy chain Y103D (Fab, V domains shown)
VH: B1 VH with Y103D, K105A
VL: B1 VL
notes: as for B1
B4: anti-IL-6 Fab, light chain S55I (Fab, V domains shown)
VH: B1 VH with K105A
VL: B1 VL with S55I
notes: as for B1
B5: anti-IL-6 Fab, heavy chain Q99A (Fab, V domains shown)
VH: B1 VH with Q99A, K105A
VL: B1 VL
notes: as for B1
B6: anti-IL-6 Fab, light chain A54Y (Fab, V domains shown)
VH: B1 VH with K105A
VL: B1 VL with A54Y
notes: as for B1
B7: anti-IL-6 Fab, heavy chain L100Q (Fab, V domains shown)
VH: B1 VH with L100Q, K105A
VL: B1 VL
notes: as for B1
B8: anti-IL-6 Fab, heavy chain A105Q (Fab, V domains shown)
VH: B1 VH with K105Q
VL: B1 VL
notes: as for B1
B9: anti-IL-6 Fab, light chain V29L (Fab, V domains shown)
VH: B1 VH with K105A
VL: B1 VL with V29L
notes: as for B1
B10: anti-IL-6 Fab, heavy chain S30V (Fab, V domains shown)
VH: B1 VH with S30V, K105A
VL: B1 VL
notes: as for B1
B11: anti-IL-6 Fab, heavy chain S30G (Fab, V domains shown)
VH: B1 VH with S30G, K105A
VL: B1 VL
notes: as for B1
B12: anti-IL-6 Fab, heavy chain S30W (Fab, V domains shown)
VH: B1 VH with S30W, K105A
VL: B1 VL
notes: as for B1
B13: anti-IL-6 antibody, heavy chain variant II (M34W/G66D/I108V), light chain variant III (M32L/M50D/N52S/M88Q) (antibody, human IgG1, V domains shown)
VH: B1 VH with M34W, G66D, K105A, I108V
VL: B1 VL with M32L, M50D, N52S, M88Q
notes: engineered human IgG1; also called II/III
B14: anti-IL-6 antibody, heavy chain variant I (M34I/G66D/I108V), light chain variant III (M32L/M50D/N52S/M88Q) (antibody, human IgG1, V domains shown)
VH: B1 VH with M34I, G66D, K105A, I108V
VL: B1 VL with M32L, M50D, N52S, M88Q
notes: engineered human IgG1; also called I/III
B15: anti-IL-6 antibody, heavy chain variant II (M34W/G66D/I108V), light chain variant V (M32L/M50D/M88Q) (antibody, human IgG1, V domains shown)
VH: B1 VH with M34W, G66D, K105A, I108V
VL: B1 VL with M32L, M50D, M88Q
notes: engineered human IgG1; also called II/V
B16: anti-IL-6 antibody, heavy chain variant II (M34W/G66D/I108V), light chain variant IV (M32L/M50A/N52S/M88Q) (antibody, human IgG1, V domains shown)
VH: B1 VH with M34W, G66D, K105A, I108V
VL: B1 VL with M32L, M50A, N52S, M88Q
notes: engineered human IgG1; also called II/IV
B17: anti-IL-6 antibody, heavy chain variant I (M34I/G66D/I108V), light chain variant V (M32L/M50D/M88Q) (antibody, human IgG1, V domains shown)
VH: B1 VH with M34I, G66D, K105A, I108V
VL: B1 VL with M32L, M50D, M88Q
notes: engineered human IgG1; also called I/V
B18: anti-IL-6 antibody, heavy chain variant I (M34I/G66D/I108V), light chain variant IV (M32L/M50A/N52S/M88Q) (antibody, human IgG1, V domains shown)
VH: B1 VH with M34I, G66D, K105A, I108V
VL: B1 VL with M32L, M50A, N52S, M88Q
notes: engineered human IgG1; also called I/IV
B19: dual inhibitor variant L of Table 2.1 (AntiIL-6-VEGF Trap) (other)
heavy: EVQLVESGGGLVQPGGSLRLSCAASGFTFSPFAWSWVRQAPGKGLEWVAKISPGGSWTYYSDTVTDRFTFSLDTSKSTAYLQMNSLRAEDTAVYYCARQLWGYYALDVWGQGTLVTVSSASTKGPSVFPLAPSSKSTSGGTAALGCLVKDYFPEPVTVSWNSGALTSGVHTFPAVLQSSGLYSLSSVVTVPSSSLGTQTYICNVNHKPSNTKVDKKVEPKSCGGGGSGGGGSSDTGRPFVEMYSEIPEIIHMTEGRELVIPCRVTSPNITVTLKKFPLDTLIPDGKRIIWDSRKGFIISNATYKEIGLLTCEATVNGHLYKTNYLTHRQTNTIIDVVLSPSHGIELSVGEKLVLNCTARTELNVGIDFNWEYPSSKHQHKKLVNRDLKTQSGSEMKKFLSTLTIDGVTRSDQGLYTCAASSGLMTKKNSTFVRVHEKDKTHTCPPCPAPEAAGAPSVFLFPPKPKDTLMISRTPEVTCVVVDVSHEDPEVKFNWYVDGVEVHNAKTKPREEQYNSTYRVVSVLTVLHQDWLNGKEYKCKVSNKALPAPIEKTISKAKGQPREPQVYTLPPSREEMTKNQVSLTCLVKGFYPSDIAVEWESNGQPENNYKTTPPVLDSDGSFFLYSKLTVDKSRWQQGNVFSCSVMHEALHNHYTQKSLSCSPGK
light: DIQLTQSPSSLSASVGDRVTITCSASISVSYLYWYQQKPGKAPKLLIYDDSNLASGVPSRFSGSGSGTDFTLTISSLQPEDFATYYCQQWSGYPYTFGQGTKVEIKRTVAAPSVFIFPPSDEQLKSGTASVVCLLNNFYPREAKVQWKVDNALQSGNSQESVTEQDSKDSTYSLSSTLTLSKADYEKHKVYACEVTHQGLSSPVTKSFNRGEC
notes: Antibody-VEGF trap fusion, trap between Fab and Fc of the heavy chain (VH variant II); also called molecule L
B20: anti-IL-6 antibody, heavy chain G66D / light chain WT (antibody, human IgG1, V domains shown)
VH: B1 VH with G66D, K105A
VL: B1 VL
notes: Derived as m2; Engineered human IgG1
B21: anti-IL-6 antibody, heavy chain S35H, G66D / light chain WT (antibody, human IgG1, V domains shown)
VH: B1 VH with S35H, G66D, K105A
VL: B1 VL
notes: as for B20
B22: anti-IL-6 antibody, heavy chain T63Q, G66D / light chain WT (antibody, human IgG1, V domains shown)
VH: B1 VH with T63Q, G66D, K105A
VL: B1 VL
notes: as for B20
B23: anti-IL-6 antibody, heavy chain WT / light chain WT (antibody, human IgG1, V domains shown)
VH: B1 VH with K105A
VL: B1 VL
notes: Full antibody on an engineered human IgG1 framework, Fc with L234A, L235A, G237A and L443C (EU numbering), expressed in Expi293 cells; also called wild-type; parent molecule
B24: anti-IL-6 antibody, heavy chain T63E, G66D / light chain WT (antibody, human IgG1, V domains shown)
VH: B1 VH with T63E, G66D, K105A
VL: B1 VL
notes: as for B20
B25: anti-IL-6 antibody, heavy chain T65Q, G66D / light chain WT (antibody, human IgG1, V domains shown)
VH: B1 VH with T65Q, G66D, K105A
VL: B1 VL
notes: as for B20
B26: anti-IL-6 antibody, heavy chain T63K, G66D / light chain WT (antibody, human IgG1, V domains shown)
VH: B1 VH with T63K, G66D, K105A
VL: B1 VL
notes: as for B20

target: T1, recombinant human IL-6 (human, UniProt P05231 30-212); test: Biacore, Fab lysate over IL-6 chip, 25 C
T1 construct: bought protein; also called interleukin-6
Description: Fab libraries were constructed containing random single point mutations for all 71 CDR positions, excluding substitutions for Cys, Met and Asn due to the chemical liabilities associated with these amino acids. Small-scale expression in 96 well plates format was utilized for screening the Fab libraries. E. coli colonies (TG1 cells, Zymo Research) containing randomized single point mutations were picked into 96 well plates (1.5 mL) and grown overnight at 30° C. in LB Amp+2% glucose. A separate 96 well plate was created on the following day by removing 100 μL of culture and adding 100 μL of 30% glycerol, then stored at −80° C. The remaining culture was spun down for 20 min and later resuspended in 1.5 mL of LB Amp containing 1 mM IPTG for induction of protein expression at 30° C. After 5 hours, cells were spun down, resuspended in 500 μL of HBS-EP+ buffer and lysed by one freeze/thaw cycle. Lysates were centrifuged for 30 minutes and vacuum filtered (200 μL) into round bottom 96 well plates for Biacore analysis.
Three ranges of antigen density (100-150 RU, 300-400 RU, 400-600 RU) were obtained by using variable flow times for each chip channel, later blocked with ethanolamine. Supernatants of the 96-well filtered culture lysates were injected at […] for 120 seconds. Fitting of dissociation curves (300 seconds) to single exponential decay curve was used for the determination of dissociation rates (koff). Chip surfaces were regenerated with 10 mM Glycine pH 1.7 solution injected at 50 μL/min during 60 seconds after every cycle of sample binding and dissociation.
T1 sequence (P05231 30-212 limits assumed): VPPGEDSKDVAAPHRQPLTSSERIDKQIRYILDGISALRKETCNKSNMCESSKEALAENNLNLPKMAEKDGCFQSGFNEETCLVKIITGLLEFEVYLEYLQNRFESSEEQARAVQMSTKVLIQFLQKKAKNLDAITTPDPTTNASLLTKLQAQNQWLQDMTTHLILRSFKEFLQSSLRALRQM

Binder	koff
B1	0.00401 s⁻¹
B2	0.0052 s⁻¹
B3	0.00503 s⁻¹
B4	0.005 s⁻¹
B5	0.00385 s⁻¹
B6	0.00529 s⁻¹
B7	0.00245 s⁻¹
B8	0.00378 s⁻¹
B9	0.00943 s⁻¹
B10	0.00352 s⁻¹
B11	0.00977 s⁻¹
B12	0.00869 s⁻¹

target: T1, recombinant human IL-6; test: Biacore, antibody captured on Protein A, IL-6 as analyte
Description: (§1) Antibodies were captured on a Protein A chip (GE) by injecting 1:20 cell supernatant dilutions at 10 μL/min for 60 seconds. […] The sensor chip was regenerated by a 60 seconds injection of 10 mM Glycine pH 1.7 at the flow rate of […]. […] For this setup, 1 μg/mL of purified antibody was injected over a Protein A chip at 10 μL/min for 25 seconds. […] The sensor chip was regenerated by a 60 seconds injection of 10 mM Glycine pH 1.7 at flow rate of 50 μL/min. Data analysis for supernatant and purified samples were performed using BIAevaluation software (GE). All sensorgrams were double reference subtracted and fit using a 1:1 Langmuir binding model.

Binder	binding result
B13	binds
B14	binds
B15	binds
B16	binds
B17	binds
B18	binds

target: T2, recombinant human IL-6 (human, UniProt P05231 30-212); test: SPR Biacore, purified dual inhibitor captured on Protein A, IL-6 analyte, 37 C
T2 construct: Analyte in the Biacore assays; also called interleukin-6
T2 sequence (P05231 30-212 limits assumed): as above

Binder	Kd	koff	kon
B19	436 pM	0.00065 s⁻¹	1.49e+06 M⁻¹ s⁻¹

target: T3, human IL-6 (human, UniProt P05231 30-212); test: SPR (Biacore T200), purified antibody captured on Protein A, IL-6 flowed over, 37 C
T3 construct: also called interleukin-6
T3 sequence (P05231 30-212 limits assumed): as above
Description: as §1

Binder	Kd	koff	kon
B20	113 pM	0.000178 s⁻¹	1.57e+06 M⁻¹ s⁻¹
B21	105 pM	0.000185 s⁻¹	1.77e+06 M⁻¹ s⁻¹
B22	193 pM	0.000251 s⁻¹	1.3e+06 M⁻¹ s⁻¹
B23	226 pM	0.000128 s⁻¹	565000 M⁻¹ s⁻¹
B24	147 pM	0.000252 s⁻¹	1.72e+06 M⁻¹ s⁻¹
B25	148 pM	0.000262 s⁻¹	1.77e+06 M⁻¹ s⁻¹
B26	161 pM	0.000235 s⁻¹	1.46e+06 M⁻¹ s⁻¹

target: T2, recombinant human IL-6; test: SPR Biacore, cell supernatant dual inhibitor captured on Protein A, IL-6 analyte, 25 C

Binder	Kd	koff	kon
B19	239 pM	0.000169 s⁻¹	705000 M⁻¹ s⁻¹

target: T3, human IL-6; test: SPR (Biacore T200), antibody from cell supernatant captured on Protein A, IL-6 flowed over, 37 C

Binder	Kd	koff	kon
B20	215 pM	0.000392 s⁻¹	1.83e+06 M⁻¹ s⁻¹
B21	136 pM	0.000397 s⁻¹	2.92e+06 M⁻¹ s⁻¹
B22	203 pM	0.000408 s⁻¹	2.01e+06 M⁻¹ s⁻¹
B23	381 pM	0.000255 s⁻¹	670000 M⁻¹ s⁻¹
B24	178 pM	0.000464 s⁻¹	2.61e+06 M⁻¹ s⁻¹
B25	158 pM	0.000517 s⁻¹	3.28e+06 M⁻¹ s⁻¹
B26	185 pM	0.000461 s⁻¹	2.49e+06 M⁻¹ s⁻¹
